# Measurements taken from patent US12398179.
# Non-standard residues stand in square brackets, D forms with d. No end group written: not given here. *: point of attachment. Biotin = O=C1N[C@H]2[C@H](CS[C@H]2CCCCC(=O)*)N1; βAla = NCCC(=O)O
# Experiments:
# [1] = molecular target: EphA2 extracellular domain fused to the Fc portion of an antibody (EphA2 Fc); experiment: competition ELISA: inhibition of ephrin-A5 AP binding to immobilized EphA2 Fc; average ± SE (number of experiments)
# [2] = molecular target: EphA2 extracellular domain fused to the Fc portion of an antibody (EphA2 Fc); experiment: competition ELISA: inhibition of ephrin-A5 AP binding to EphA2 Fc
# [3] = molecular target: EphA2 extracellular domain fused to the Fc portion of an antibody (EphA2 Fc); experiment: ELISA, inhibition of ephrin-A5 AP binding to immobilized EphA2 Fc; representative experiment
# [4] = molecular target: EphA2 extracellular domain fused to the Fc portion of an antibody (EphA2 Fc); experiment: ELISA, inhibition of ephrin-A5 AP binding to immobilized EphA2 Fc; representative experiment; concentrations in nM
# Chain of EphA2 extracellular domain fused to the Fc portion of an antibody (EphA2 Fc) (P29317 whole entry, the tested form may be a part): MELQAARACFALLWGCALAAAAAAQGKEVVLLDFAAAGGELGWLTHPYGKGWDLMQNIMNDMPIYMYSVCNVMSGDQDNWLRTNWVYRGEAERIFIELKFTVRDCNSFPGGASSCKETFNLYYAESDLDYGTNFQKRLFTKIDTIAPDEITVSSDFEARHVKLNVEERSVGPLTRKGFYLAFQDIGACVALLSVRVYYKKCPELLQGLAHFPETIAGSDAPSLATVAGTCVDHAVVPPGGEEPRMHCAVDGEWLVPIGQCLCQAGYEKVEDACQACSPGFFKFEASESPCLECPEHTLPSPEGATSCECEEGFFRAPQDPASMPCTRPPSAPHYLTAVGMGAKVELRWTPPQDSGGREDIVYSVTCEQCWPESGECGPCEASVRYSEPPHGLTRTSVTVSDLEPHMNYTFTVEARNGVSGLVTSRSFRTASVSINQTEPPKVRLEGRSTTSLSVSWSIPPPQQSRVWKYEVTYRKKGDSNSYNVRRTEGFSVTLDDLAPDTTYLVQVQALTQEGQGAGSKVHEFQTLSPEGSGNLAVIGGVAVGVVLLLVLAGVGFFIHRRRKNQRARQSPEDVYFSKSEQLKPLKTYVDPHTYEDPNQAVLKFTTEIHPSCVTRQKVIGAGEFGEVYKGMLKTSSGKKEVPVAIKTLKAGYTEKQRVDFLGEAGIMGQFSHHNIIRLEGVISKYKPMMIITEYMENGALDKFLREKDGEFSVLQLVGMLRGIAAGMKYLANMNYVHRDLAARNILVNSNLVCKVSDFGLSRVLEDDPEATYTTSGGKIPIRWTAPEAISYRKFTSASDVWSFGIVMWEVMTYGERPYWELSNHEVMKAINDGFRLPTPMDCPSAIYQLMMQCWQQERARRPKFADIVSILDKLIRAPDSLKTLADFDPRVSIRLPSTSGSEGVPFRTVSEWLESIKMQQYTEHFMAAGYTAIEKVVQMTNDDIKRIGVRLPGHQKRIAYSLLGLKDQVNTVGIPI
Binder,IC50 [1] [nM],further results
[βAla]WLAYPDSVPYK(Biotin) [βA-WLA-YK-bio],730,–
[βAla]WLAYPDSVPM-NH2 [βA-WLAam],840,fold increase in potency against WLAam [2]: 2 fold; IC50 [3]: 680 nM
[βAla]WLAYPDSVPYGSGK(Biotin) [βA-WLA-YGSGK-bio],330,–
[βAla]WLAYPDSVPYR [βA-WLA-YR],390,IC50 [4]: 360 nM
[βAla]WLAYPDSVPYSK [βA-WLA-YSK],380,–
[βAla]WLAYPDSVPYSPK(Biotin) [βA-WLA-YSPK-bio],62,–
WLAYPDSVPM-NH2 [WLAam],1500,IC50 [4]: 1400 nM; fold improvement in potency against YSA1-10am [2]: 2 fold
[βAla]WLAYPDSVPYGSK(Biotin) [βA-WLA-YGSK-bio],400,–
